Values quoted from earlier work as cited in PMC6430685.

Biological target: BAX (Homo sapiens) (UniProt Q07812)
Sequence (Q07812 whole entry): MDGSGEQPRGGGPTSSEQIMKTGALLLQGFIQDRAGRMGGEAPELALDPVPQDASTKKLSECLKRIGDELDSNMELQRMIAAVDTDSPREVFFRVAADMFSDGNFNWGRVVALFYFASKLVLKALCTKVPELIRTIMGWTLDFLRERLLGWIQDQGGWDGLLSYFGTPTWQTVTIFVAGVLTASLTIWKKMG

Sequence of vMIA (P16778 23-487): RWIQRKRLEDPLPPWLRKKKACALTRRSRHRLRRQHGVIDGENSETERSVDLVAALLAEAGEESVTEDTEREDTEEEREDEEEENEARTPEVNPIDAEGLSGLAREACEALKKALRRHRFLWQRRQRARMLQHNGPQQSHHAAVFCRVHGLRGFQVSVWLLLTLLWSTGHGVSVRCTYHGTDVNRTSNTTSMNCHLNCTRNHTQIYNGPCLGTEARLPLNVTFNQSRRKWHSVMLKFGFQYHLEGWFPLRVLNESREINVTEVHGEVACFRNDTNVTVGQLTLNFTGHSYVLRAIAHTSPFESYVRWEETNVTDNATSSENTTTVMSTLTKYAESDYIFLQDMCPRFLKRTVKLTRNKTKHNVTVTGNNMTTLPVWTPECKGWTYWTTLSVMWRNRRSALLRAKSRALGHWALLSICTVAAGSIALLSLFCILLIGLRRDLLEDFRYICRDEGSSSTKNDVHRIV

For vMIA (from UniProt P16778), the Kd is given as 140 nM.
